Reference: article PMC4714512

target: Human histone H3.5 (human) (UniProt Q6NXT2); assay: native gel or EMSA; nucleosomes reconstituted with 146 base-pair human alpha-satellite DNA by salt dialysis from 2 M KCl, heated at 55 °C for 2 h, purified by preparative non-denaturing PAGE; analysed by non-denaturing 6 % PAGE and 18 % SDS-PAGE (histone composition)

Stoichiometry N, 1:
Human histone H2A (from UniProt P04908 1-130) (natural protein)
Human histone H2B (from UniProt P06899 1-126) (natural protein)
Human histone H4 (from UniProt P62805 1-103) (natural protein)
